The values that follow come from patent publication US20220332848A1 (published 2022).

One test concerns the target human CTLA-4 (human, UniProt P16410 36-223). The test is described as follows: FACS binding CHO-K1 cells expressing human CTLA-4. Background: A flow cytometer gives signals particle by particle.
The next test has as its target CD47 (UniProt Q08722 19-323). The test is described as follows: FACS.

Chain of CD47 (Q08722 19-323): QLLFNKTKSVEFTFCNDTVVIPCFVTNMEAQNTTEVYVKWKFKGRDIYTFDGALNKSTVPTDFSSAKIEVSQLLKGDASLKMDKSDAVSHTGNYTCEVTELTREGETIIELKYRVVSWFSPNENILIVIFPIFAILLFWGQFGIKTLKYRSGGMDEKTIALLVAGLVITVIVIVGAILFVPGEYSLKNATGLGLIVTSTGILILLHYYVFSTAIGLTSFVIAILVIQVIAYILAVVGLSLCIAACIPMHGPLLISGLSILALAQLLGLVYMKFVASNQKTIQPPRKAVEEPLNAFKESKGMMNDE
Chain of human CTLA-4 (P16410 36-223): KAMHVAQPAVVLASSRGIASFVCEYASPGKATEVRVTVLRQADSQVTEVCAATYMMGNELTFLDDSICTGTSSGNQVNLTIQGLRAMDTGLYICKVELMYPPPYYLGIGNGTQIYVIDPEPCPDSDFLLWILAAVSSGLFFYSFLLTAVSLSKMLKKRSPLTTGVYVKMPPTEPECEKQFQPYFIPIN

B1: bispecific antibody CTLA4-G9-LN (bispecific antibody)
light: EVQLVESGGGLVQPGGSLRLSCAASGYTYSRHCLGWFRQAPGKGREAVSTIDSDGSTSYADSVKGRFTISRDNAKNTLYLQMNSLRPEDTAVYYCAIGPNPRYCSGAPNTRGAEHYFGYWGQGTLVTVSSGGGGSGGGSEIVLTQSPATLSLSPGERATLSCRASENVGTYISWYQQKPGQAPRLLIYGASNRYTGIPARFSGSGSGTDFTLTISSLEPEDFAVYYCGESYGHLYTFGGGTKVEIKRTVAAPSVFIFPPSDEQLKSGTASVVCLLNNFYPREAKVQWKVDNALQSGNSQESVTEQDSKDSTYSLSSTLTLSKADYEKHKVYACEVTHQGLSSPVTKSFNRGEC
heavy: not shown
With B1, the EC50 (as a rule, the concentration at which the effect is half-maximal) with human CTLA-4 worked out at 3.59 nM.

B2: anti-CD47 monoclonal antibody (mAb) (antibody, V domains shown)
VH: EVQLVQSGAEVKKPGSSVKVSCKASGYSFTHHWIHWVRQAPGQGLEWMGMIDASDSETRLSQKFKDRVTITADKSTSTAYMELSSLRSEDTAVYYCARLGRYYFDYWGQGTTVTVSS
VL: EIVLTQSPATLSLSPGERATLSCRASENVGTYISWYQQKPGQAPRLLIYGASNRYTGIPARFSGSGSGTDFTLTISSLEPEDFAVYYCGESYGHLYTFGGGTKVEIKR
With B2, the EC50 in the test with CD47 was 0.905 nM; in the test with human CTLA-4 it was ~3.2 nM.

B3: bispecific antibody CTLA4-E-HN (bispecific antibody)
heavy: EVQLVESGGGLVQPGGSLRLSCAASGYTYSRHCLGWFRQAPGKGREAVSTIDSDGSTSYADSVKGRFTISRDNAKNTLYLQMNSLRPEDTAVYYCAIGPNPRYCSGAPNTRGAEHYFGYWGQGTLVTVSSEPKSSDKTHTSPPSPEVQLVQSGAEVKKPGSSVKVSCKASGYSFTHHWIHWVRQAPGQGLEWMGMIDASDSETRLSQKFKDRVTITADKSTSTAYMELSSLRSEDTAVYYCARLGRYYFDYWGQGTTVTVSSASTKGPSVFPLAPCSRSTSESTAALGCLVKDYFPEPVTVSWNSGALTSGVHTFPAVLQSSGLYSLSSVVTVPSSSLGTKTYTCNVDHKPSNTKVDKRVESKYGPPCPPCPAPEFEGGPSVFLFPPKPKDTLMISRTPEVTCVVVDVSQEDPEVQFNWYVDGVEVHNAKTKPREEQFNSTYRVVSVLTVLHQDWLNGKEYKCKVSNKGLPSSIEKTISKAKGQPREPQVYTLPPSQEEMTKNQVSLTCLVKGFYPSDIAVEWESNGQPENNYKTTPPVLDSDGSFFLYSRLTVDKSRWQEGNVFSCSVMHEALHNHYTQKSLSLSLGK
light: EIVLTQSPATLSLSPGERATLSCRASENVGTYISWYQQKPGQAPRLLIYGASNRYTGIPARFSGSGSGTDFTLTISSLEPEDFAVYYCGESYGHLYTFGGGTKVEIKRTVAAPSVFIFPPSDEQLKSGTASVVCLLNNFYPREAKVQWKVDNALQSGNSQESVTEQDSKDSTYSLSSTLTLSKADYEKHKVYACEVTHQGLSSPVTKSFNRGEC
For B3, the EC50 worked out at 2.3 nM with CD47 and 3.61 nM in the test with human CTLA-4.

B4: bispecific antibody CTLA4-G15-HN (bispecific antibody)
heavy: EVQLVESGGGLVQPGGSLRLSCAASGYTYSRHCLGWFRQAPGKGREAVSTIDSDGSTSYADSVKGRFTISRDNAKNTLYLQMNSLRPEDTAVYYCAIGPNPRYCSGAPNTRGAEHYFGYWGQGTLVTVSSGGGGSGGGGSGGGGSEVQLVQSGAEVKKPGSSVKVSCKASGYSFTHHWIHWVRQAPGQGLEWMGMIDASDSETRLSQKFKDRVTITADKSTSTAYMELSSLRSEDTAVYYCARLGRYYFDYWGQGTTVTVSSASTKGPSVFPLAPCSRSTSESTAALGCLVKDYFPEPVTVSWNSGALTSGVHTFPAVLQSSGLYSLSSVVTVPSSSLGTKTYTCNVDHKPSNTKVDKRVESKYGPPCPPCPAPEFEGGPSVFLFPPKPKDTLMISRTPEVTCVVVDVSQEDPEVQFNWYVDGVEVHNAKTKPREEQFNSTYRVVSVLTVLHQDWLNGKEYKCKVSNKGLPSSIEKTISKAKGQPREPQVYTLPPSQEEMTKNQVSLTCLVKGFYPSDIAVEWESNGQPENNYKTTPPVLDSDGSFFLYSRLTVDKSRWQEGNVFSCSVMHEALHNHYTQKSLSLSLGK
light: B3 light
Turning to B4, the figures for the EC50 in the test with CD47 and with human CTLA-4 were 1.81 nM and 2.93 nM, respectively.

B5: bispecific antibody CTLA4-E-HC (bispecific antibody)
heavy: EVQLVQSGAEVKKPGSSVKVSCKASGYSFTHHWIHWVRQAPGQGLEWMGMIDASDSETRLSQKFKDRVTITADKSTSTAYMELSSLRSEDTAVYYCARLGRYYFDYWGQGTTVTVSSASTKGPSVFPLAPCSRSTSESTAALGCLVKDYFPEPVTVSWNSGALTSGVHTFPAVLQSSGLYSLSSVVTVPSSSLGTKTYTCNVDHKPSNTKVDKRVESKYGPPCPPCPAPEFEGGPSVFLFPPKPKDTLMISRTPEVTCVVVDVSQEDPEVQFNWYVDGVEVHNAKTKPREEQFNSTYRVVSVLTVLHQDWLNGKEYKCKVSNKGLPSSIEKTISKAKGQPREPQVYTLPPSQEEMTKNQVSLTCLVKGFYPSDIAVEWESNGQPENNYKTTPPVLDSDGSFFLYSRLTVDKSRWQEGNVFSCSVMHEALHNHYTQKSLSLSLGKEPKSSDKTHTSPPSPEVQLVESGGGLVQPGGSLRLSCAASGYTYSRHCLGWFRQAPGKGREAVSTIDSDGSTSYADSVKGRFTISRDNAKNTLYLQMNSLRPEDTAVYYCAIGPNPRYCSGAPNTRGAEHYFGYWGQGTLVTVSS
light: B3 light
Turning to B5, the half-maximal effective concentration (EC50) with CD47 was 1.57 nM; with human CTLA-4, 7.05 nM.

B6: bispecific antibody CTLA4-G15-HC (bispecific antibody)
heavy: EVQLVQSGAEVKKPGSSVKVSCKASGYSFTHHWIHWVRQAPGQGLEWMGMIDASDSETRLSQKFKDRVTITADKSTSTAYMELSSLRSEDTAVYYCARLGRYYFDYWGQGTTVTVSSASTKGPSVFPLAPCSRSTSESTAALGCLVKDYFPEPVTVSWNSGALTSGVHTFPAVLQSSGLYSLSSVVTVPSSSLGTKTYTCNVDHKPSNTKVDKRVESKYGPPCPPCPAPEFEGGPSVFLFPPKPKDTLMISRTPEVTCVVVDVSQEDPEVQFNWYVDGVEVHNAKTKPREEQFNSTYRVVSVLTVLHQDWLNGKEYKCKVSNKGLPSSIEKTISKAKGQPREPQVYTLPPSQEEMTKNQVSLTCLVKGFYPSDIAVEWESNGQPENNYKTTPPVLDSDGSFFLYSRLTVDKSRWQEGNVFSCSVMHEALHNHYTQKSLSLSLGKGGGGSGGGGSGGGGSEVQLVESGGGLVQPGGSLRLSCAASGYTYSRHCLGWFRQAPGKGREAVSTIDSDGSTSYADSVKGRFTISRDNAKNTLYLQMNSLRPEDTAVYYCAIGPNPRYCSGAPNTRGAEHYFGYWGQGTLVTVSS
light: B3 light
For the molecule B6, the results for the half-maximal effective concentration (EC50) with CD47 and in the test with human CTLA-4 were 1.63 nM and 6.22 nM, respectively.
